The data set in a line: soluble on expression in E. coli; label from the status in PepcDB or PDB records.
Consider “MLTMRICLRATYTQKEYKWESTVNEQISAASLYDRVARVIPKAEWMGFQDDVEAILELKRKRNAVILAHNYQTPEIFHGVADIVGDSLALARKAMEVEADVIVLAGVHFMAETAKLLNPEKTVLIPDMAAGCSLADSITPEDIALLRKAYPGVPVVTYVNTSAAVKAASDICCTSGNARQVVESLGVPRVLMLPDEYLAKNVAKETSVELIAWRGHCEVHELFTADDIRELRESHPGVIVLAHPECPPEVVDAADFSGSTAVMSDYVGRERPARVVLLTECSMSDNVAVHHPDVEFIRPCNLCPHMKRITLGNIRTALEENRHEVTVDPAIAGAARRAVERMLQIMAGDPLEHHHHHH”, for which the “soluble on expression in E. coli” value is reported as “not soluble”. Under “MLTPTPDSSPRSTSSPSQSKNGSFTPRTANILKPLMSPPSREEIMATLLDHD” stands “soluble”. In the case of “MLTRSMVLVNEAWWVEPLPVHWVDKLVAELEAKLQNRGKDEYIFNGGLSVSGLQHIGRLRGEVLLGEAVRRELEKRGFRVKQLLTLYTVDPWKGKDEQRREFPDPKAAERYVGWPLDRVPDPKGCHASWVDHFWSDFGPYIGVFTDGKIEVVTTRELYKGRLKEFITTMVLPRRDEIRRVINKYRGRKPYQEGWIPLEPRCARCGRIDSTEALEILGGERVRYRCSYCGYQGESSIEDSKLNWRIEWAGVWWSLGVDFEPYGKDHATPGGSRDSAAELARLLGFEPPEGVWYEWVSLRAGGREADMSSSGFTGITPREWLDIAHPQILRFIYFLHPPTRRVVVDLSEIPSYYSQYYRAERIYFGIEEASTVEETRYLARTYELSHPSNPPAKPPSQIPYSHAAIVAQVVGPERLWTDGLERLKRAGLLGHDEYSIRWAKELLEKAYKWARRYAPKHLKFEIPDSPPEDALRRIEKPDLLEKLAEVLESVEEWSEERIKQALVEFGEGMSSSERRRFYRDFYLAIVGRPEGPRAAPLLSLMDRGFVVDRLRKAANLSRELKGR” it was “soluble”. In the case of “MLTTLAISNYRTLREIVLPLGRLNVVTGANGSGKSNLYKALRLLAQTAQGGVVNALALEGGLDSCFWAGPENLTKGMLAGDTPIEATVRQAPKRLKLGFAGEDFSYLIELGLPKPDSTTLFGLDPQIKREAIWNGAKYRPASVLVERRGPMVKSRSQDGQGWITLSAHLQSSDSIFTELADPERSPEVLKLRDSIRAWRFYDHFRTDTDAPARRPQLGTATPVLHHDGRDLPSAIQTIFEIGDKSAFDHAVSDAFPGAKVRITPQAGGILQLEFQQQGLLRPLYASELSDGTLRYLLLIAALLTPRPPELMVLNEPETSLHPDLLPALARLIAKASELEHHHHHH” it was “not soluble”. With “MLTVTDYYKELLNFCARTLKDRDAAADLVQEAYTRFLVAQRSGAAIADPRALLFRTTRNLLIDQHRRAEVRMHLSLDTLLEEEQPLAPRHLQPEEVLAFSRYAQALYAAIESLPRRCREAFILNRFDGLSHQEVAEKMGISRNMVAQHIIRGVLVCKACDDRFHGRVVLASKPAE”, the “soluble on expression in E. coli” value is recorded as “not soluble”. Under “MLVAERQQKIVEIVNMRSSIRVSELSDIFSVTEETIRRDLEKLEKEHKLSRSHGGAVSIQQKESEIHFSEREITNVIEKKAIAHEAAKYVKSGDRIILDASTTAWYMAKILPDIELTVITNSMKAAIELSNKENISVISTGGILLEKSLSFAGPLAERSLETYHVNKTFLSCKGFDVHNGMSDSNEWQALLKKRMIERSDQTILMADSSKWGNREFSHIASLQDVSRLITDSGLDPASVKALEDKKVKVTAVPLSKRGLEHHHHHH” stands “soluble”. With “MLVKDFMTRNPITIAPETSFSEALKLMKQNKIKRLIVMKNEKIVGIVTEKDLLYASPSKATTLNIWELHYLLSKLKIEEIMTKDVVTVNENTPIEDAARIMEEKDISGLPVVDDAGRLVGIITQTDIFKVFVEIFGTKREGTIRYTMEMPDKPGELLEVAKRIYEAGGNIISIATLFEEGKDSYLATLRVENIDHEKFVKSLDEIDVKLLYYHSN”, the “soluble on expression in E. coli” value is on record as “soluble”. In the case of “MLVPSANRWVPKFKSKKTEKKLAPDGKTELLDKDEVERKMKSLLNKLTLEMFDAISSEILAIANISVWETNGETLKAVIEQIFLKACDEPHWSSMYAQLCGKVVKELNPDITDETNEGKTGPKLVLHYLVARCHAEFDKGWTDKLPTNEDGTPLEPEMMSEEYYAAASAKRRGLGLVRFIGFLYRLNLLTGKMMFECFRRLMKDLTDSPSEETLESVVELLNTVGEQFETDSFRTGQATLEGSQLLDSLFGILDNIIQTAKISSRIKFKLIDIKELRHDKNWNS” it was “soluble”.

For the origin of these results see the DeepSol protein solubility set.
